In PMC8458290 (Nature Communications, 2021):

B1: nanobody C1 (monovalent VHH, pOPINO construct) (VHH)
VHH: QVQLVESGGGLVQPGGSLRLSCAASGFTNDFYSIAWFRQAPGKEREGVSWLSVSDNTPTYVDSVKDRFTISRHNANNTVYLQMNMLKPEDTAIYYCAAGRFAGRDTWPSSYDYWGQGTQVTVSS
B2: nanobody F2 (monovalent VHH, pOPINO construct) (VHH)
VHH: QVQLVESGGGLVQAGGSLRLACIASGRTFHSYVMAWFRQAPGKEREFVAAISWSSTPTYYGESVKGRFTISRDNAKNTVYLQMNRLKPEDTAVYFCAADRGESYYYTRPTEYEFWGQGTQVTVSS

Molecular target: SARS-CoV-2 receptor-binding domain (amino acids 330-532), Victoria strain, biotinylated (SARS-CoV-2, Wuhan/Victoria (B), UniProt P0DTC2, biotinylated (site not stated))
Test: SPR
Settings: both partners purified

Row | Binder | Kd | T1/2
1 | B1 | 0.615 nM | 20 min
2 | B2 | 0.04 nM | 
